The experiment deals with FLAG-2xStrep-PNO1 (UniProt Q9NRX1). Put plainly: co-IP.

Drawing on publication doi:10.1101/2024.07.23.604771, this text covers fold increase of association, lytic against latent cells for one substance.

Chain of UniProt Q9NRX1 (Q9NRX1 whole entry): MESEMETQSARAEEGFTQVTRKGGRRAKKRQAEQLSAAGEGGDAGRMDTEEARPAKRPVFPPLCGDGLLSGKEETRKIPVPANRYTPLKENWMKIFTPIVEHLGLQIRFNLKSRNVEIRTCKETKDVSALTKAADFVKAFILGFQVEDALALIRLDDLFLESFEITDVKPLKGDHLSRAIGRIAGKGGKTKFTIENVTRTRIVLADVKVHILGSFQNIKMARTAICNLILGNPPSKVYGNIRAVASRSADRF

Substance “EMG1 (from UniProt Q92979 1-244) (natural protein)” displayed a fold increase of association, lytic against latent cells of 3 fold.
